Test results: patent publication US20170049855A1 (NEW YORK UNIVERSITY, published 2017)

B3: Recombinant GBA (R&D Systems Cat. No. 7410-GH-010) (enzyme, UniProt P04062 40-536, looked up)
chain: ARPCIPKSFGYSSVVCVCNATYCDSFDPPTFPALGTFSRYESTRSGRRMELSMGPIQANHTGTGLLLTLQPEQKFQKVKGFGGAMTDAAALNILALSPPAQNLLLKSYFSEEGIGYNIIRVPMASCDFSIRTYTYADTPDDFQLHNFSLPEEDTKLKIPLIHRALQLAQRPVSLLASPWTSPTWLKTNGAVNGKGSLKGQPGDIYHQTWARYFVKFLDAYAEHKLQFWAVTAENEPSAGLLSGYPFQCLGFTPEHQRDFIARDLGPTLANSTHHNVRLLMLDDQRLLLPHWAKVVLTDPEAAKYVHGIAVHWYLDFLAPAKATLGETHRLFPNTMLFASEACVGSKFWEQSVRLGSWDRGMQYSHSIITNLLYHVVGWTDWNLALNPEGGPNWVRNFVDSPIIVDITKDTFYKQPMFYHLGHFSKFIPEGSQRVGLVASQKNDLDAVALMHPDGSAVVVVLNRSSKDVPLTIKDPAVGFLETISPGYSIHTYLWRRQ
modifications: biotin-labeled (EZ-Link Sulfo-NHS-LC-Biotin) in the solid phase binding assay only
notes: Bought protein; Immobilised on the COOH1 chip in SPR; also called glucocerebrosidase; beta-glucocerebrosidase
B4: Recombinant His-tag PGRN protein (recombinant human progranulin) (ligand)
chain: TRCPDGQFCPVACCLDPGGASYSCCRPLLDKWPTTLSRHLGGPCQVDAHCSAGHSCIFTVSGTSSCCPFPEAVACGDGHHCCPRGFHCSADGRSCFQRSGNNSVGAIQCPDSQFECPDFSTCCVMVDGSWGCCPMPQASCCEDRVHCCPHGAFCDLVHTRCITPTGTHPLAKKLPAQRTNRAVALSSSVMCPDARSRCPDGSTCCELPSGKYGCCPMPNATCCSDHLHCCPQDTVCDLIQSKCLSKENATTDLLTKLPAHTVGDVKCDMEVSCPDGYTCCRLQSGAWGCCPFTQAVCCEDHIHCCPAGFTCDTQKGTCEQGPHQVPWMEKAPAHLSLPDPQALKRDVPCDNVSSCPSSDTCCQLTSGEWGCCPIPEAVCCSDHQHCCPQGYTCVAEGQCQRGSEIVAGLEKMPARRASLSHPRDIGCDQHTSCPVGQTCCPSLGGSWACCQLPHAVCCEDRQHCCPAGYTCNVKARSCEKEVVSAQPATFLARSPHVGVKDVECGEGHFCHDNQTCCRDNRQGWACCPYRQGVCCADRRHCCPAGFRCAARGTKCLRREAPRWDAPLRDPALRQLL
notes: Coated on the plate in the solid phase assay; analyte (200 nM) in SPR; also called rPGRN; His-tagged PGRN; not shown: His tag

How the values were obtained:
[1] = target: T1, mouse GBA (endogenous, lung tissue) (mouse, UniProt P17439 20-515); assay: co-immunoprecipitation from lung lysate of WT and PGRN KO mice, IP: GBA, IB: LIMP2
T1 construct: Endogenous protein precipitated or detected with anti-GBA antibody; also called glucocerebrosidase
T1 sequence (looked up): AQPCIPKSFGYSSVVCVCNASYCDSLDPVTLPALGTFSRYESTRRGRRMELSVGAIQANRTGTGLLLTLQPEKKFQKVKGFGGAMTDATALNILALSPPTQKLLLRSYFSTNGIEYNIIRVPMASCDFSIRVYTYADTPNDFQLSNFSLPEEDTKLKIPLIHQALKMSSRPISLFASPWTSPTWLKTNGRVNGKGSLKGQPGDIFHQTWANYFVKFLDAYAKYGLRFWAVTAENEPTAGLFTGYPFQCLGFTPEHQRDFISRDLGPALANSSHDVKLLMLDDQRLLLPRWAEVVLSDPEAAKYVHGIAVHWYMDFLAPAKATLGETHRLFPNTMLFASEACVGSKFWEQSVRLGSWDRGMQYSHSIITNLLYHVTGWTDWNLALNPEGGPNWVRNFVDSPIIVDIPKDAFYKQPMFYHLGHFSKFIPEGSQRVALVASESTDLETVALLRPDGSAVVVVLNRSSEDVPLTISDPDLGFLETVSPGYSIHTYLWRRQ

[2] = target: T2, mouse Sortilin (endogenous, lung tissue) (mouse, UniProt Q6PHU5 74-825); assay: co-immunoprecipitation from lung lysate of WT and PGRN KO mice, IP: Sortilin, IB: GLA
T2 construct: Endogenous protein in lung lysate
T2 sequence (Q6PHU5 74-825 limits assumed): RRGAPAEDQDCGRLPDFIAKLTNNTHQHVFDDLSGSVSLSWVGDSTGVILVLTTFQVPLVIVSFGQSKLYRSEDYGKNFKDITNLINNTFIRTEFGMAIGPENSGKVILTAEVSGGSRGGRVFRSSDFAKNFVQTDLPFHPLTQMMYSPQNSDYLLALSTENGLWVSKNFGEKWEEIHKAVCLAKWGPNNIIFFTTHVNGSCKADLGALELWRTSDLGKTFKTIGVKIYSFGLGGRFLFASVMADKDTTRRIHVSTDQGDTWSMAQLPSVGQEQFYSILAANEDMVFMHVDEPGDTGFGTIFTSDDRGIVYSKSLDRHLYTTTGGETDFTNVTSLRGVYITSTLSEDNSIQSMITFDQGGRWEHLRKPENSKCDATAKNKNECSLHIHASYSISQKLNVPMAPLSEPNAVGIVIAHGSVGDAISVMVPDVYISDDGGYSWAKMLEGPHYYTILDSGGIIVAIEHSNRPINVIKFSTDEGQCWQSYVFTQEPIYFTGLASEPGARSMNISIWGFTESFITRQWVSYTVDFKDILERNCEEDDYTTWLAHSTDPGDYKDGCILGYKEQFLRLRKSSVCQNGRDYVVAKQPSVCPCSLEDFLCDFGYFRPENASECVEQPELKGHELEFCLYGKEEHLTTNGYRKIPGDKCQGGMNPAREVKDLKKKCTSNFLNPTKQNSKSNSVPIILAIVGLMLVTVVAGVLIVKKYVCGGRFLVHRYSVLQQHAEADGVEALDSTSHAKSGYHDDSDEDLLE

[3] = target: B4; assay: SPR (SensiQ Pioneer), GBA immobilised, PGRN injected, running buffer pH 6.0
Procedure: (§1) All SPR experiments were done by SensiQ Technologies Inc. (Oklahoma City, Okla.) by using SensiQ Pioneer at a controlled analysis temperature of 25° C., and samples in the instrument sample racks were maintained at 18° C. The running buffer throughout the immobilization and the assay consisted of 10 mM HEPES, 150 mM NaCl, 0.005% Tween 20.
(§2) Data was analyzed using the QDat Analysis Software (SensiQ Technologies and BioLogic Software). All data were double referenced to a reference channel (channel 2) and buffer blanks. The average signal of the buffer blanks was used to subtract injection artifacts. Referenced SPR data from the analysis channels were model fit to ascertain ka, kd, and KD for the interactions.

[4] = target: B4; assay: SPR (SensiQ Pioneer), GBA immobilised, PGRN injected, running buffer pH 5.5
Procedure: as §1, §2

[5] = target: B4; assay: SPR (SensiQ Pioneer), GBA immobilised, PGRN injected, running buffer pH 6.5
Procedure: as §1, §2

[6] = target: B4; assay: SPR (SensiQ Pioneer), GBA immobilised, PGRN injected, running buffer pH 7.4
Procedure: as §1, §2

[7] = target: B3; assay: solid phase binding assay: PGRN coated at the concentration on the x axis (µg/ml), biotin-labeled GBA added, streptavidin-HRP, OD 450 nm
Procedure: (§3) The plate was washed with 0.1% tween/PBS five times and then blocked with 2% BSA/PBS solution. […] Wash with 0.1% tween/PBS, and coated with streptavidin-HRP (1:2000 dilution) solution for 1 hour. After washing add t h e substrate and stop the reaction with 100 μl 2M H₂SO₄. Read result at UV 450 nm in plate reader.

[8] = target: T3, Recombinant sortilin (R&D Systems Cat. No. 3154-ST-050) (UniProt Q99523 78-755); assay: SPR, SensiQ Pioneer, COOH1 chip, Sortilin immobilised, PGRN as analyte (data not shown)
T3 construct: Bought protein; Immobilised on channel 1 of the chip in SPR

[9] = target: B4; assay: solid phase binding assay: PGRN coated at the concentration on the x axis (µg/ml), biotin-labeled LIMP2 added, streptavidin-HRP, OD 450 nm
Procedure: as §3

B1: mouse LIMP2 (endogenous, lung tissue) (receptor, UniProt O35114 1-478, looked up)
chain: MGRCCFYTAGTLSLLLLVTSVTLLVARVFQKAVDQTIEKNMVLQNGTKVFNSWEKPPLPVYIQFYFFNVTNPEEILQGEIPLLEEVGPYTYRELRNKANIQFGENGTTISAVTNKAYVFERNQSVGDPNVDLIRTINIPLLTVVDLAQLTLLRELIEAMLKAYQQKLFVIHTVHELLWGYKDEILSLVHIFKPDVSPNFGLFYERNGTNDGEYVFLTGEDNYLNFSKIVEWNGKTSLDWWTTDTCNMINGTDGDSFHPLISKDEVLYLFPSDLCRSVHITFSSFENVEGLPAFRYKVPAEILANTSENAGFCIPEGNCMDSGVLNISICKNGAPIIMSFPHFYQADEKFVSAIKGMHPNKEEHESFVDINPLTGIILRGAKRFQINTYVRKLDDFVETGDIRTMVFPVMYLNESVLIDKETANQLKSVINTTLVVTNIPYIIMALGVFFGLVFTWLACRGQGSMDEGTADERAPLIRT
notes: Endogenous protein in lung lysate; also called Lysosomal integral membrane protein 2
B1: binds [1].

B2: mouse alpha-galactosidase A (endogenous, lung tissue) (enzyme, UniProt P51569 32-419, looked up)
chain: LDNGLARTPTMGWLHWERFMCNLDCQEEPDACISEQLFMQMAELMVSDGWRDAGYDYLCIDDCWMAPERDSKGRLQADPQRFPSGIKHLANYVHSKGLKLGIYADVGNKTCAGFPGSFGSYDIDAQTFADWGVDLLKFDGCHCDSVVSLENGYKYMALALNRTGRSIVYSCEWPLYLRPFHKPNYTDIQYYCNHWRNFDDVYDSWESIKNILSWTVVYQKEIVEVAGPGSWNDPDMLVIGNFGLSWDQQVTQMALWAIMAAPLLMSNDLRQISSQAKALLQNKDVIAINQDPLGKQGYCFRKENHIEVWERPLSNLAWAVAVRNLQEIGGPCPYTIQISSLGRGLACNPGCIITQLLPEKVHLGFYEWTLTLKTRVNPSGTVLFRLER
notes: Endogenous protein in lung lysate; also called GLA; alpha-GLA
B2: binds [2].

In the case of B3, the Kd [3] is reported as 16.9 nM, the Kd [4] is reported as 55 nM and the Kd [5] is reported as 20.8 nM. The Kd [6] was 0.71 nM.

In the case of B4, the “EC50 (read off the curve)” value [7] is reported as about 1 µg/mL and the Kd [8] is reported as 3.67 nM.

B5: Recombinant LIMP2 (R&D Systems Cat. No. 1966-LM-050) (receptor, UniProt Q14108 27-432, looked up)
chain: RVFQKAVDQSIEKKIVLRNGTEAFDSWEKPPLPVYTQFYFFNVTNPEEILRGETPRVEEVGPYTYRELRNKANIQFGDNGTTISAVSNKAYVFERDQSVGDPKIDLIRTLNIPVLTVIEWSQVHFLREIIEAMLKAYQQKLFVTHTVDELLWGYKDEILSLIHVFRPDISPYFGLFYEKNGTNDGDYVFLTGEDSYLNFTKIVEWNGKTSLDWWITDKCNMINGTDGDSFHPLITKDEVLYVFPSDFCRSVYITFSDYESVQGLPAFRYKVPAEILANTSDNAGFCIPEGNCLGSGVLNVSICKNGAPIIMSFPHFYQADERFVSAIEGMHPNQEDHETFVDINPLTGIILKAAKRFQINIYVKKLDDFVETGDIRTMVFPVMYLNESVHIDKETASRLKSMINTT
modifications: biotin-labeled (EZ-Link Sulfo-NHS-LC-Biotin)
notes: Bought protein; also called Lysosomal integral membrane protein 2
B5: no binding (tested: 5 µg/ml) [9].
